# In PMC7154896, “The Effect of Recombinant Tags on Citrus paradisi Flavonol-Specific 3-O Glucosyltransferase Activity” (Plants, 2020):
# B1: tagged Cp3GT (Citrus x paradisi) (protein)
# chain: MAQTQSQPRPHIAVLNFPFSTHASSVLSIIKRLAVSAPTALFTFFSTPQSNKALFSTGQQRHLPSNVKPYDVSDGVPEGHVFSGKRQEDIELFMNAADANFRKAVEAAVAETGRPLTCLVTDAFIWFAAEMAREWNNVPWVPCWPAGPNSLSAHLYTDIIRDKIGTQSQNQDQQLIHFIPGMNKIRVADLPEGVVSGDLDSVFSVMLHQMGRQLPKAAAVFINSFEELDPELTNHLKTKFNNKFLSVGPFKLLLASDQQPSSATDLDDEYGCLAWLDKQKKKPASVAYVSFGTVATPSPNEIVAIAEALEANKVPFIWSLRHRSQANLPNGFLERTRSDGIVVDWAPQVNVLAHEAVGVFVTHCGWGSILESIAAGVPMIGRPFFGDQRINGRMMEQVWGVGVAVDGGGICTKEGLLSSLDLILCQEKGIKIREKVTKLKQLCQNAIGPGGSSMQNLDALVDMISRSY
# notes: recombinant, Pichia pastoris X-33 (pPicZa), C-terminal thrombin site and c-myc/6x His tags kept; cobalt IMAC
# B2: untagged Cp3GT (Citrus x paradisi) (protein)
# chain: B1 chain
# notes: recombinant, Pichia pastoris X-33 (pPicZa), C-terminal c-myc/6x His tags cut off with thrombin; cobalt IMAC; 56 kDa on gel
# Tests used:
# tagged Cp3GT = biological target: T1, tagged Cp3GT (Citrus x paradisi, UniProt C5MR71); assay: glucosyltransferase assay, UDP inhibition; assay type: biochemical
# T1 construct: recombinant, Pichia pastoris X-33 (pPicZa), C-terminal thrombin site and c-myc/6x His tags kept; cobalt IMAC
# T1 sequence (C5MR71 1-468): B1 chain
# untagged Cp3GT = biological target: T2, untagged Cp3GT (Citrus x paradisi, UniProt C5MR71); assay: glucosyltransferase assay, UDP inhibition; assay type: biochemical
# T2 construct: recombinant, Pichia pastoris X-33 (pPicZa), C-terminal c-myc/6x His tags cut off with thrombin; cobalt IMAC; 56 kDa on gel
# T2 sequence (C5MR71 1-468): B1 chain
# [1] = substrate: O=c1ccn([C@@H]2O[C@H](CO[P@@](=O)(O)O[P@@](=O)(O)O[C@H]3O[C@H](CO)[C@@H](O)[C@H](O)[C@H]3O)[C@@H](O)[C@H]2O)c(=O)[nH]1; assay: glucosyltransferase assay, Lineweaver-Burk; assay type: biochemical, Citrus x paradisi; settings: UDP-glucose varied 0–1333 µM, non-limiting acceptor (not named), 30 °C, pH 7.5, µM
# Text: (§1) glucosyltransferase assay, Lineweaver-Burk on tagged Cp3GT
# [2] = substrate: O=c1c(O)c(-c2ccc(O)c(O)c2)oc2cc(O)cc(O)c12; assay: glucosyltransferase assay, Lineweaver-Burk; assay type: biochemical, Citrus x paradisi; settings: acceptor varied 0–667 µM, non-limiting UDP-glucose, 30 °C, pH 7.5, µM
# Text: as §1
# purified protein = substrate: O=c1c(O)c(-c2ccc(O)cc2)oc2cc(O)cc(O)c12; assay: purified protein; settings: acceptor varied 0–667 µM, non-limiting UDP-glucose, 30 °C, pH 7.5, µM
# [3] = substrate: O=c1ccn([C@@H]2O[C@H](CO[P@@](=O)(O)O[P@@](=O)(O)O[C@H]3O[C@H](CO)[C@@H](O)[C@H](O)[C@H]3O)[C@@H](O)[C@H]2O)c(=O)[nH]1; assay: glucosyltransferase assay, Lineweaver-Burk; assay type: biochemical, Citrus x paradisi; settings: UDP-glucose varied 0–1333 µM, non-limiting acceptor (not named), 30 °C, pH 7.5, µM; remark: listed apart in the source
# Text: (§2) glucosyltransferase assay, Lineweaver-Burk on untagged Cp3GT
# [4] = substrate: O=c1c(O)c(-c2ccc(O)c(O)c2)oc2cc(O)cc(O)c12; assay: glucosyltransferase assay, Lineweaver-Burk; assay type: biochemical, Citrus x paradisi; settings: acceptor varied 0–667 µM, non-limiting UDP-glucose, 30 °C, pH 7.5, µM; remark: listed apart in the source
# Text: as §2
Molecule,Ki (tagged Cp3GT) [µM],Ki (untagged Cp3GT) [µM],Km [1] [µM],kcat [1] [s⁻¹],kcat/Km [1] [M⁻¹ s⁻¹],Km [2] [µM],kcat [2] [s⁻¹],kcat/Km [2] [M⁻¹ s⁻¹],Km (purified protein) [µM],kcat (purified protein) [s⁻¹],kcat/Km (purified protein) [M⁻¹ s⁻¹],Km [3] [µM],kcat [3] [s⁻¹],kcat/Km [3] [M⁻¹ s⁻¹],Km [4] [µM],kcat [4] [s⁻¹],kcat/Km [4] [M⁻¹ s⁻¹]
O=c1ccn([C@@H]2O[C@H](COP(=O)(O)OP(=O)(O)O)[C@@H](O)[C@H]2O)c(=O)[nH]1 [UDP],61.8,73.1,–,–,–,–,–,–,–,–,–,–,–,–,–,–,–
B1,–,–,49.7 ± 5.32,0.637 ± 0.092,12000 ± 2000,51.9 ± 8.29,1.84 ± 0.19,35000 ± 1000,44.1 ± 3.41,1.28,29000,–,–,–,–,–,–
B2,–,–,–,–,–,–,–,–,53.7 ± 10.6,1.34,25000,55.0 ± 4.97,0.738 ± 0.125,12000 ± 400,42.4 ± 3.48,1.54 ± 0.06,36000 ± 1000
